The values that follow come from patent US6512097.

Numbering of substitutions follows the chain as printed.

B1: C6ML3-9 (scFv)
scFv: QVQLLQSGAELKKPGESLKISCKGSGYSFTSYWIAWVRQMPGKGLEYMGLIYPGDSDTKYSPSFQGQVTISVDKSVSTAYLQWSSLKPSDSAVYFCARHDVGYCSSSNCAKWPEYFQHWGQGTLVTVSSGGGGSGGGGSGGGGSQSVLTQPPSVSAAPGQKVTISCSGSSSNIGNNYVSWYQQLPGTAPKLLIYGHTNRPAGVPDRFSGSKSGTSASLAISGFRSEDEADYYCASWDYTLSGWVFGGGTKLTVLG
notes: template (wt) of the VH CDR3 libraries; also called C6ML3-9 (wt); C6ML-9
B2: C6ML3-5 (scFv)
scFv: B1 scFv with S235A, T239S
B3: C6ML3-14 (scFv)
scFv: B1 scFv with S235A, Y238D, T239P, S241W
B4: C6ML3-6 (scFv)
scFv: B1 scFv with T239S
B5: C6ML3-19 (scFv)
scFv: B1 scFv with Y238R, T239P, S241W
B6: C6ML3-29 (scFv)
scFv: B1 scFv with S235A, Y238G, S241W
B7: C6ML3-23 (scFv)
scFv: B1 scFv with Y238H, T239S, S241W
B8: C6ML3-7 (scFv)
scFv: B1 scFv with S235A, T239A, L240V
B9: C6ML3-15 (scFv)
scFv: B1 scFv with S235A, Y238R, T239P, S241W
notes: also called C6M13-15
B10: C6ML3-12 (scFv)
scFv: B1 scFv with S235A, T239S, L240R
notes: also called CML-3-12
B11: C6H1 (scFv)
chain: QVQLVESGAEVKKPRESLKISCKGSGYSFTSYEIAWVRQMPGKGLEYMGLIYPGDSDTKYSPSFQGQVTISVDKSVSTAYLQWSSLKPSDTAMYYCARHDVGYCSSSNCAKWPEYFQHWGQGTLVTVSSGGGGSGGGGSGGGGSQSVLTQPPSVSAAPGQKVTISCSGSSSNIGNNYVSWYQQLPGTAPKLLIYGHTNRPAGVPDRFSGSKSGTSASLAISGFRSEDEADYYCAAWDDSLSGWVFGGGTKLTVLG
B12: C6H2 (scFv)
scFv: B11 chain with E6Q, E33W, G54A, D57K, K59I, P88T
notes: Heavy chain shuffled
B13: C6MH3-B1 (scFv)
scFv: B1 scFv with S105T, S106D, S107R, N108T
notes: C6ML3-9 sFv, VH CDR3 library B mutant; also called CH3-B1
B14: C6MH3-B47 (scFv)
scFv: B1 scFv with S105T, S106D, S107R, N108S
notes: C6ML3-9 sFv, VH CDR3 library B mutant
B15: C6MH3-C4 (scFv)
scFv: B1 scFv with K111V
notes: C6ML3-9 sFv, VH CDR3 library C mutant; also called mutant sFv K100gV
B16: C6MH3-D2 (scFv)
scFv: B1 scFv with Y115W, F116L, Q117G, H118V
notes: C6ML3-9 sFv, VH CDR3 library D mutant
B17: C6ML3-11 (scFv)
scFv: B1 scFv with S235A, T239A, S241W
B18: C6ML3-13 (scFv)
scFv: B1 scFv with S235A, Y238A, S241W
B19: C6ML3-8 (scFv)
scFv: B1 scFv with S235A, Y238H, T239L, L240R, S241W
B20: C6ML3-4 (scFv)
scFv: B1 scFv with D237E, T239S, S241W
B21: C6H1L1 (scFv)
chain: B11 chain with A156G, K161W, G195D, H196N, T197N, N198K, A201S, K211Q, F223L
B22: C6H2L1 (scFv)
scFv: QVQLVQSGAEVKKPRESLKISCKGSGYSFTSYWIAWVRQMPGKGLEYMGLIYPADSKTIYSPSFQGQVTISVDKSVSTAYLQWSSLKTSDTAMYYCARHDVGYCSSSNCAKWPEYFQHWGQGTLVTVSSGGGGSGGGGSGGGGSQSVLTQPPSVSGAPGQWVTISCSGSSSNIGNNYVSWYQQLPGTAPKLLIYDNNKRPSGVPDRFSGSQSGTSASLAISGLRSEDEADYYCAAWDDSLSGWVFGGGTKLTVLG

As usually defined, the Kd is the concentration at which binding is half-saturated. Low values mean tighter binding, high ones weaker binding. One may read the koff as the first-order rate constant of dissociation. Higher therefore signals a short-lived complex.

In the first assay the target is T1, c-erbB-2 ECD with a Ser-Gly-His6 C-terminal fusion (UniProt P04626 23-652).
T1 construct: extracellular domain; Expressed from CHO cells, IMAC purified; coupled to a CM5 chip, coated on plates, or biotinylated with NHS-LC-biotin; also called c-erbB-2 extracellular domain; biotinylated c-erbB-2 ECD
The experiment in a line: SPR BIAcore. For orientation: Surface plasmon resonance follows binding to a sensor surface in real time, without labels.
The molecule B1 gave a Kd of 1 nM and a koff of 0.00019 s⁻¹.

The molecule B2 yielded a Kd of 3.7 nM.

Consider B3, for which binding was put at a Kd of 1.1 nM and the koff is 0.00076 s⁻¹.

Consider B4, for which the Kd worked out at 3.2 nM and the koff amounted to 0.0019 s⁻¹.

B5 showed a Kd of 1.5 nM and a koff of 0.001 s⁻¹.

B6 showed a Kd of 1.7 nM and a koff of 0.0022 s⁻¹.

On to B7, for which binding was characterised by a dissociation constant (Kd) of 1.5 nM and the koff is 0.001 s⁻¹.

In turn, B8 had a Kd of 2.6 nM and a koff of 0.0017 s⁻¹.

B9: the dissociation constant (Kd) came to 2.2 nM.

The molecule B10 yielded a Kd of 1.6 nM and a koff of 0.00072 s⁻¹.

Another assay concerns the target T1, c-erbB-2 ECD with a Ser-Gly-His6 …. Kind of assay: SPR BIAcore. This is another data set of the same source.
For B11, the “fold higher affinity than C6.5” value came out at 3 fold.

For the molecule B12, the “fold higher affinity than C6.5” value turned out to be 5 fold.

For B1, the “t1/2 calculated from koff” value is 0.217 h.

Regarding B13, binding was characterised by a dissociation constant (Kd) of 0.12 nM, the koff came to 6e-05 s⁻¹ and the “t1/2 calculated from koff” value is 2.25 h.

B14: the “fold lower Kd than C6ML3-9” value was found to be 9 fold, the “fold lower Kd than C6.5” value stood at 145 fold, the “fold lower koff than C6ML3-9” value was 10 fold and the “fold lower koff than C6.5” value came out at 84 fold.

As for B15, the “fold lower Kd than wt” value was 2.7 fold and the “fold lower koff than C6ML3-9” value is 3.8 fold.

B16: the “fold change of Kd against wt C6ML3-9” value is 7 fold.

For another assay the target is unchanged. Kind of assay: SPR BIAcore. This is another data set of the same source.
Molecule B1 gave a Kd of 1 nM and a koff of 0.00092 s⁻¹.

As to B17, the Kd stood at 3.6 nM and the koff stood at 0.0022 s⁻¹.

In turn, B2 yielded a Kd of 3.2 nM.

Molecule B3 registered a Kd of 1 nM and a koff of 0.00077 s⁻¹.

In the case of B18, the Kd was found to be 2.4 nM and the koff stood at 0.0021 s⁻¹.

As to B19, the equilibrium dissociation constant (Kd) amounted to 2.6 nM and the koff turned out to be 0.0017 s⁻¹.

With B4, binding was put at a Kd of 3.2 nM and the koff was 0.0019 s⁻¹.

Molecule B5 had a Kd of 1.5 nM and a koff of 0.001 s⁻¹.

For the molecule B6, binding was characterised by a dissociation constant (Kd) of 2.7 nM and the koff was 0.0022 s⁻¹.

In turn, B7 yielded a Kd of 1.5 nM and a koff of 0.0017 s⁻¹.

With B8, the Kd was 2.6 nM and the koff came to 0.0017 s⁻¹.

For the molecule B20, the Kd came out at 3.5 nM and the koff worked out at 0.0014 s⁻¹.

In the case of B9, the Kd came to 2.2 nM.

Turning to B10, binding was characterised by a dissociation constant (Kd) of 1.6 nM and the koff came out at 0.00072 s⁻¹.

For the next assay the target is unchanged. Kind of assay: SPR BIAcore. The source holds these as a separate data set. The method, then: (§1) All assays were performed in triplicate. Briefly, […] of radioiodinated sFv was added to 5×10^6 SK-OV cells in the presence of increasing concentrations of unlabeled sFv from the same preparation. After a 30 minute incubation at 20° C., the samples were washed with PBS at 4° C. and centrifuged at 500 g. The amount of labeled sFv bound to the cells was determined by counting the pellets in a gamma counter and the K_a, and K_d were calculated using the EBDA program (V 2.0, G. A. McPherson, 1983). The K_d of all the other isolated sFv were determined using surface plasmon resonance in a BIAcore (Pharmacia). In a BIAcore flow cell, approximately 1400 resonance units (RU) of c-erbB-2 ECD (25 μg/ml in 10 mM sodium acetate, pH 4.5) was coupled to a CM5 sensor chip (Johnsson et al. (1991), supra). Association and dissociation-rates were measured under continuous flow of […] using a concentration range from 50 to 800 nM. Rate constant $kon$ was determined from a plot of (1(dR/dt))/t vs concentration (Karlsson et al. (1991), supra). Rate constant $Hoff$ was determined from the dissociation part of the sensorgram at the highest concentration of sFv analyzed.
As to B11, the affinity, expressed as Kd, was 5.9 nM.

For B12, binding was put at a Kd of 3.1 nM.

B21 showed a Kd of 15 nM.

Molecule B22 yielded a dissociation constant (Kd) of 6 nM.

The next assay shares this target. Kind of assay: SPR BIAcore. This is another data set of the same source. The method, then:
as §1
Dashes indicate sequence identity. Mutations arising from PCR error and located outside V_H CDR3 are listed under the heading other mutations. F = frequency of isolated scFv. *$koff$ determined from unpurified scFv samples. Underline indicates mutated residue.
On to B1, for which the Kd is 1 nM and the koff worked out at 0.00076 s⁻¹.

B13: the Kd amounted to 0.16 nM and the koff turned out to be 6.7e-05 s⁻¹.

In turn, B14 returned a Kd of 0.11 nM and a koff of 7.5e-05 s⁻¹.

B15 displayed a Kd of 0.37 nM and a koff of 0.0002 s⁻¹.

Take B16: the Kd came to 0.16 nM and the koff is 0.0002 s⁻¹.
